± gives the standard deviation of the averaged measurements.
Tested on: ATP
Assay: switch fluorescence ratio, 500 uM ATP over buffer (Cy3 cluster intensity, sum of 5 cycles each) (fold (ratio)); higher = stronger signal-on switching upon ATP binding; sequences stand for … in TCGTCGGCAGCGTCAGATGTGTATAAGAGACAGTTTTTTTTTTTTTTTTTTTTTTTTT…TC
Settings: aptamer strand: ATP DNA aptamer (quencher-CACCTGGGGGAGTATTGCGGAGGAAGG + anchor), 100 nM annealed; ATP concentration: 500 uM
Procedure, shortened: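 Exposure to 500 uM ATP lasted 15 min at 22 °C before imaging, and a selection-buffer image was taken beforehand, for Cy3-labelled switching-strand clusters on a modified Illumina MiSeq flow-cell annealed to 100 nM quencher-labelled ATP aptamer. Five buffer/ATP cycles were run with NaOH stripping and re-annealing between them. The fluorescence ratio per cluster is summed target-cycle over summed buffer-cycle Cy3 intensity, averaged per switch-domain sequence. Clusters outside 100-1000 RFU were excluded.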

Row | Sequence | switch fluorescence ratio
1 | GGTGTCGGGT | 0.99 ± 0.012
2 | AGAAAAGGAA | 1 ± 0.017
3 | TACAGGCTCG | 1.007 ± 0.01
4 | TGGGGGATCA | 0.978 ± 0.029
5 | GAGAAAAATG | 0.9597 ± 0.0087
6 | AAGGCAACGC | 0.98 ± 0.056
7 | ACTTACAGAA | 1.23 ± 0.011
8 | TGCGCCATTT | 1.13 ± 0.26
9 | GGGTTCAGAG | 1 ± 0.042
10 | AAGGGGGGCG | 1.02 ± 0.037
11 | TGTCTTTTTT | 1.01 ± 0.029
12 | GTTGGGATGT | 0.996 ± 0.015
13 | GTAGTCACGA | 1.01 ± 0.048
14 | GATATTGTCA | 1.04 ± 0.069
15 | TTACCTCTGC | 1.39 ± 0.067
16 | ACGTCGCGGG | 0.9877 ± 0.0019
17 | GTTCTGGGAG | 1 ± 0.012
18 | CAGATCGGTT | 0.964 ± 0.014
19 | GGAAGAAAAA | 1.01 ± 0.067
20 | GTAATTTGGG | 0.982 ± 0.019
21 | TACCTAGTTA | 1.03 ± 0.029
22 | TTTTAGTTTG | 1.01 ± 0.035
23 | GGGGTTGTGA | 1.01 ± 0.022
24 | CTAAGGCGAT | 1.06 ± 0.12
25 | TTACCCATTT | 1.1 ± 0.085

Row | Sequence | switch fluorescence ratio
26 | AATCAAAAAT | 0.949 ± 0.043
27 | CTATGAATTA | 0.984 ± 0.024
28 | TTCTACCAGC | 1.01 ± 0.011
29 | GGCTACTGAG | 1.08 ± 0.066
30 | GCGCGCGTTC | 1.03 ± 0.045
31 | CCGGTTGAGA | 1 ± 0.016
32 | TAGCTTCAC | 1.142 ± 0.0084
33 | TGGTTGCGGC | 0.986 ± 0.03
34 | AAAGAATTCG | 0.974 ± 0.037
35 | CTGTTAGTTG | 0.993 ± 0.019
36 | GCAAGTTCAA | 1.01 ± 0.031
37 | TTAGTATCTC | 1.03 ± 0.047
38 | TTTTGTTAAA | 1.01 ± 0.028
39 | CGGCTGGTCA | 0.984 ± 0.021
40 | CACGGATAGC | 1.07 ± 0.027
41 | CCTATAGTAC | 1.69 ± 0.05
42 | GGGGGAGATA | 1 ± 0.025
43 | TTGCTAAAGG | 0.964 ± 0.016
44 | AATTTGGTAA | 0.999 ± 0.019
45 | AACGATTGGG | 0.948 ± 0.027
46 | CAGGGGAAAC | 1.02 ± 0.077
47 | ATTTCTAACT | 1.015 ± 0.0022
48 | TAAGGAGTGC | 0.955 ± 0.12
49 | GTTTTTTTTC | 0.985 ± 0.011
50 | GGGCACTGGT | 1.04 ± 0.032

Row | Sequence | switch fluorescence ratio
51 | AACTGTGGAA | 0.991 ± 0.015
52 | CTAGGGCTGA | 0.972 ± 0.013
53 | TTAACTCGAC | 1.07 ± 0.038
54 | ACCGACTTGC | 1.09 ± 0.018
55 | TTTGGACGTC | 0.992 ± 0.037
56 | ATGGGGTGCT | 0.986 ± 0.035
57 | ACGGTTGAAT | 0.9882 ± 0.0084
58 | AAATACGGTG | 1.17 ± 0.16
59 | ATGGAAGGGC | 1.01 ± 0.011
60 | TGGGACTATT | 1.01 ± 0.076
61 | CGGATATGGA | 0.988 ± 0.058
62 | TAAAATGCCG | 1.01 ± 0.061
63 | TTCAGGAGGA | 1.03 ± 0.011
64 | GGATTATGAA | 0.994 ± 0.023
65 | GCATGAGGAT | 1.01 ± 0.06
66 | ATACGATTGG | 0.9674 ± 0.0044
67 | GCCGTTGGGG | 0.99 ± 0.031
68 | TTAGCGGTGG | 0.926 ± 0.057
69 | AGCGCGAATG | 1.01 ± 0.018
70 | TTTTGTTTAC | 1.01 ± 0.028
71 | TACCATTTTG | 1 ± 0.028
72 | TTTTCGTATG | 1 ± 0.053
73 | TGGGGTCGCT | 0.9829 ± 0.001
74 | ACCGGGGCTA | 1.03 ± 0.031
75 | ATGAATACAA | 1.01 ± 0.014

Row | Sequence | switch fluorescence ratio
76 | ACGCAGGTAT | 1.04 ± 0.061
77 | GGCCGGGAAT | 0.9941 ± 0.0028
78 | GAGGGGAGGT | 0.974 ± 0.025
79 | TTGTTGGGGC | 1.02 ± 0.035
80 | TTTCGGCTTT | 1.24 ± 0.3
81 | AATCGGCGTC | 1.08 ± 0.15
82 | TCTTGGTCGG | 1.026 ± 0.0041
83 | AATTTAAAAC | 1.02 ± 0.031
84 | CATGTATGTT | 1.01 ± 0.012
85 | CTCGGAATGG | 1.08 ± 0.043
86 | AAACGTAATA | 1.31 ± 0.014
87 | GTTGTAGATG | 1.005 ± 0.0058
88 | AAATATATGT | 0.997 ± 0.046
89 | TTTGGCCCCT | 1 ± 0.03
90 | TGGGGCATCG | 1 ± 0.029
91 | ATAGCAGGTG | 2.9 ± 1.1
92 | GATTATCGTT | 1.03 ± 0.027
93 | TCTGAGCGGA | 1.14 ± 0.13
94 | CTGTTCCTTT | 1.056 ± 0.0014
95 | CTAAAATTAA | 1.01 ± 0.031
96 | GCACCAAAAG | 0.973 ± 0.028
97 | GCTGGGTCTG | 1 ± 0.017
98 | ATGATGTTTG | 0.981 ± 0.039
99 | CTAGGTGGGG | 1.02 ± 0.025
100 | CTATTAAGTA | 0.9802 ± 0.0064

Row | Sequence | switch fluorescence ratio
101 | TAAAGGCGAG | 1.02 ± 0.027
102 | CCATGCTTGT | 1.03 ± 0.035
103 | CTGATAAAGT | 0.9922 ± 0.0082
104 | AACTAGATCG | 1.02 ± 0.028
105 | AGGTTGTACT | 0.968 ± 0.016
106 | AAGCAGGGTG | 1 ± 0.04
107 | CGCGGATTGG | 0.9903 ± 0.0094
108 | GATATTGGGG | 0.981 ± 0.033
109 | AATTTTTGAT | 0.979 ± 0.037
110 | GGAAATTGGG | 0.994 ± 0.016
111 | TTTCAATCAT | 0.983 ± 0.038
112 | AATAAGGTTG | 0.982 ± 0.04
113 | GGGAATAGAT | 0.9835 ± 0.002
114 | ACAGGGTCG | 0.948 ± 0.025
115 | GGATGTGTTT | 0.999 ± 0.029
116 | ATGGGGGGCG | 1.02 ± 0.053
117 | TGATGGTAGG | 0.981 ± 0.031
118 | CGTGCGGATG | 1.02 ± 0.0057
119 | ATTTGCGATT | 1.03 ± 0.019
120 | GGCCTTGGCA | 1.03 ± 0.015
121 | TACGATACAC | 1.44 ± 0.075
122 | AGGGTAGGGA | 0.9917 ± 0.004
123 | GCCGTTTGTG | 1.008 ± 0.0024
124 | CTTAACGGGA | 0.99 ± 0.026
125 | GGTGGGGAAC | 1.03 ± 0.068

Row | Sequence | switch fluorescence ratio
126 | TAGCTCAGGG | 1.065 ± 0.0032
127 | TAGAACAAAA | 0.99 ± 0.015
128 | TCTAGCAACG | 1.01 ± 0.032
129 | CGAAGGCGTG | 1 ± 0.018
130 | TTTTTGTAT | 0.979 ± 0.015
131 | TTTGGCGAAC | 1.02 ± 0.02
132 | GAACTAGGTC | 1.01 ± 0.021
133 | CGTTTAGCGT | 1 ± 0.0018
134 | TAGAATCAGC | 0.99 ± 0.07
135 | ACCCTGGCAA | 1.36 ± 0.41
136 | TTTAATACTG | 1.08 ± 0.089
137 | CATGAAAAAT | 1 ± 0.011
138 | GAGGGACTTG | 0.98 ± 0.012
139 | TGTTGGGAAC | 1.07 ± 0.12
140 | AGGTCTGAAA | 1.04 ± 0.042
141 | GGCCCGGGTT | 0.994 ± 0.019
142 | GCAGGGGTTA | 1.28 ± 0.43
143 | TCTCGGGGCT | 0.97 ± 0.011
144 | TTTCTGGCTT | 1.02 ± 0.051
145 | GTGTTAGCTG | 1.02 ± 0.028
146 | TATTAGAAGC | 1.01 ± 0.046
147 | CTCGTTGAAA | 0.9779 ± 0.0065
148 | TGTGATGGAG | 0.979 ± 0.033
149 | TTAAGCATAG | 1.69 ± 0.91
150 | CATTTTAGAG | 0.98256 ± 0.00032

Row | Sequence | switch fluorescence ratio
151 | GGTGTATGAA | 0.994 ± 0.029
152 | TCAAAAAGTG | 0.989 ± 0.034
153 | CCGTTTAAAA | 1.11 ± 0.15
154 | GGCCTCAAGG | 1.06 ± 0.04
155 | TGACATAGGT | 1.02 ± 0.019
156 | GGGACAGCCT | 1.01 ± 0.017
157 | CAAGTGGCAC | 0.977 ± 0.022
158 | GCTGTTAGTG | 0.98 ± 0.013
159 | TGACGCAAAG | 1.63 ± 0.065
160 | ATTTGGACGG | 0.948 ± 0.026
161 | TTTTGGTCTG | 1.01 ± 0.031
162 | TGCACATGGG | 1.02 ± 0.015
163 | AGATTTAGTC | 1 ± 0.051
164 | TCAATCGGGT | 0.995 ± 0.053
165 | TGCGGGGAGA | 1.02 ± 0.024
166 | TAAGTGGTGA | 1.04 ± 0.056
167 | GCTGGTACAG | 1 ± 0.022
168 | CTGTGGTTGG | 0.981 ± 0.011
169 | TTCACCCGGT | 1.11 ± 0.12
170 | GCAATCTGGT | 1.11 ± 0.026
171 | GCGGATGAGC | 0.995 ± 0.013
172 | TTTCGGAATT | 1.35 ± 0.48
173 | AGATAACTCT | 1.012 ± 0.0083
174 | TGATTTGGGA | 0.971 ± 0.015
175 | CGTTGGGGGT | 0.978 ± 0.022

Row | Sequence | switch fluorescence ratio
176 | AGCCGGGTAG | 1.053 ± 0.0086
177 | TGGGGGTGCC | 0.9758 ± 0.0037
178 | CTTGTCACCA | 0.988 ± 0.022
179 | GTTGCACTTT | 0.983 ± 0.052
180 | AGGAGCTAGT | 1.01 ± 0.038
181 | AAAGGGTTGT | 1.009 ± 0.009
182 | CCTCAGCAGA | 3.75 ± 0.53
183 | GGCCGGGGGC | 0.994 ± 0.047
184 | TTGTCAATGT | 1.06 ± 0.053
185 | GGTCGGGGCA | 1.02 ± 0.025
186 | TAGTTTTGTA | 0.971 ± 0.05
187 | GTGCCCAACG | 1.03 ± 0.03
188 | GACGATTATA | 1.028 ± 0.0017
189 | GGGGAAGCGG | 0.991 ± 0.056
190 | GGTAATATTA | 1.07 ± 0.051
191 | TGTGGGTTTG | 0.958 ± 0.012
192 | ATGTAAATTT | 1.01 ± 0.005
193 | TTAGGTAGTT | 0.971 ± 0.051
194 | ATCATGTGCA | 0.9627 ± 0.0073
195 | GGCTGGGCTG | 0.991 ± 0.029
196 | AAGTTGGGCT | 1.01 ± 0.025
197 | TTTACTTTGG | 0.982 ± 0.034
198 | ATCGCCAGGC | 1.014 ± 0.0044
199 | TTCGGGCATT | 0.989 ± 0.046
200 | TGGGGTTCAG | 1.01 ± 0.019

Source: the supplement of paper PMC10126150
